Measurements from patent US9402875B2, “Amidated dopamine neuron stimulating peptide restoration of mitochondrial activity” (University of Kentucky Research Foundation, priority 2006, dated 2016).

Key:
[1] = test system: E14 SD rat embryo primary dopaminergic neurons from the ventral mesencephalon; type: cell-based
Description: DNSP-11 treatment of Mesencephalic Cells: Timed pregnant SD rats (Harlan) were used to obtain the ventral mesencephalon from E14 fetuses. The dissected tissue was collected in cold Neurobasal™ medium and rinsed twice with cold Dulbecco's PBS. The cells were chemically (TrypLE®) and mechanically dissociated to yield a single cell suspension. The solution was centrifuged at 169 g for 6 minutes and the pellet was resuspended in Dulbecco's Modified Eagle Medium (DMEM). Cells were plated in a 25 μL micro-island at a density of 4000 cells/μL on poly-D-lysine coated 24-well plates (Sigma). Following adherence, cells were supplemented with warm NEUROBASAL™ media containing 2 mM glutamine, 1×N2, and 100 units of penicillin/streptomycin. Neurotrophic compounds were added at each media addition, including initial plating and DIV 2. A dose response of the peptides (0.03 ng to 10 ng/mL) was added to a 24-well plate following media supplementation.
The neurotrophic effects of DNSP-11 were studied by comparing its effects to the well-known effects of GDNF on the maintenance of primary mesencephalic cell cultures from E14 SD rat embryos. E14 SD rat embryo primary dopaminergic neurons from the ventral mesencephalon were grown for 5 days in vitro and neurotrophic molecules were added at each media change, including initial plating and day 2. […] These effects were similar to those observed for GDNF in these cells, including an increase in the size of TH+ neurons, which was not observed for DNSP-11 (Table 4).
In Table 1, cell survival and morphological parameters were quantified for control (citrate buffer) and experimental (0.1 ng/ml GDNF or 0.1 ng/ml DNSP-11) conditions. For morphology, five fields per well (minimum of 15 cells/field; 3-4 independent experiments) were photographed at 20× magnification and quantified using a Bioquant Image Analysis System. […] Soma size was not increased by the addition of DNSP-11. A one-way ANOVA was used to test for significance among groups, followed by a Newman-Keuls post hoc analysis. Significance between control and experimental conditions was determined at *p<0.05 and **p<0.01.

[2] = test system: MN9D dopaminergic cells; test: TUNEL assay, protection against 6-OHDA toxicity; type: cell-based; details: 1 ng/mL for 1 hour before 100 μM 6-OHDA for 15 min; at 24 h
Description: (§1) MN9D Cell Cultures: The MN9D cell line has been described by Choi (1991) Brain Res. 552:67-76 and was a gift from Michael Zigmond. Cells were cultured in DMEM supplemented with 10% Fetal Bovine Serum (FBS, Hyclone), 50 U/mL penicillin and streptomycin. For experiments, the cells were plated on 24-well poly-D-lysine in DMEM with 1% (v/v) penicillin-streptomycin. The cells were grown at 37° C. in 5% CO2.
Terminal dUTP Nick-End Labeling (TUNEL) Assay in MN9D Cells: After treatment with DNSP-11, MN9D cells were fixed and labelled to assess degenerative nuclear changes as indicated by the extent of high-molecular weight DNA strand breaks. DNA fragmentation was detected by using steptavidin-horseradish peroxidise conjugate followed by the substrate diaminobenzidine (DAB) generating a colored precipitate. Ratios between apoptotic and total cells were determined (4 random fields/well; 4 wells/ group). Experiments were repeated 3 times.
To evaluate DNSP-11's neuroprotective properties, DNSP-11 was compared to GDNF in its protection against 6-OHDA-induced toxicity in the dopaminergic cell line, MN9D. MN9D dopaminergic cells were incubated for 1 hour with either citrate buffer (control), 1 ng/mL of DNSP-11 or GDNF prior to 100 μM 6-OHDA exposure for 15 min. […]

[3] = test system: MN9D dopaminergic cells; test: Caspase-3 activity assay, protection against 6-OHDA toxicity; type: cell-based; details: 1 ng/mL for 1 hour before 100 μM 6-OHDA for 15 min; at 3 h
Description: as §1
Caspase-3 Activity Assay in MN9D Cells: MN9D cells were plated to 100,000 cells/well. Cell cultures were exposed to DNSP-11 (1 ng/mL) or buffer for 1 hour prior to 15 min 100 μM 6-OHDA exposure. Caspase-3 activity was monitored after 3 hours by fluorescence (excitation/emission 496/520 nm) using the Enz Chek Caspase-3 kit. Protein levels of lysed cells were measured by BCA assay (BioRad) and normalized for every experiment. Data expressed as % control and repeated a minimum of 3 times.
To evaluate DNSP-11's neuroprotective properties, DNSP-11 was compared to GDNF in its protection against 6-OHDA-induced toxicity in the dopaminergic cell line, MN9D. MN9D dopaminergic cells were incubated for 1 hour with either citrate buffer (control), 1 ng/mL of DNSP-11 or GDNF prior to 100 μM 6-OHDA exposure for 15 min. Data are +SD, one-way ANOVA with Tukey's post hoc analysis, *p<0.05, **p<0.01, ***p<0.001 vs. control; #p<0.05, ##p<0.01, ###p<0.001 vs. 6-OHDA.

[4] = target: GAPDH (Homo sapiens, UniProt P04406); test: Gel filtration analysis of interaction between GAPDH and GDNF; type: binding; details: equimolar solution, pre-equilibrated 1 h, Sephacryl S-200
Chain of GAPDH (P04406 2-335 limits assumed, species assumed): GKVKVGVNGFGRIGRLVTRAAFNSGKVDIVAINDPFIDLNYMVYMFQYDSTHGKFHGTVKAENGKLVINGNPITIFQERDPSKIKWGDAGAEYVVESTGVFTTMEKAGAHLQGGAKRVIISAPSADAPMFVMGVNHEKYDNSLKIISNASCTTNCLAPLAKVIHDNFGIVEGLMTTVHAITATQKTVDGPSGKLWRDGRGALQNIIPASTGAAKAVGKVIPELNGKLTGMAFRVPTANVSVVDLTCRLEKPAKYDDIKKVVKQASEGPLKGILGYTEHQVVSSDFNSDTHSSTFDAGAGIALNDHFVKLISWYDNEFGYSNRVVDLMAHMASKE
Description: A gel filtration study was performed using a 120 mL Sephacryl S-200 column at a constant 1 mL/min flow rate. Individual 300 μM solutions of GAPDH (˜150 kDa; FIG. 14, dotted line) or GDNF (˜30 kDa; FIG. 14, dashed line) eluted at expected retention times for their sizes of 50 min (FIG. 14, star) and 64 min (FIG. 14, pound sign), respectively. When a pre-equilibrated (1 h), equimolar solution of GAPDH and GDNF was analyzed by gel filtration chromatography, two equally intense peaks were observed (FIG. 14, solid line) with retention times identical to the individual solutions.

[5] = test system: Erk1/2; test: ERK1/2 activation by western blot; type: cell-based; details: DNSP-11 0.1 uM or 1 uM or GDNF 50 ng/ml for 20 minutes
Description: MN9D and B65 cell were cultured in DMEM; 11995 (containing pyridoxol HCl; Sigma, St. Louis, Mo.) supplemented with 10% fetal bovine serum (HyClone, Logan, Utah), 50 U/mL penicillin and streptomycin with DNSP-11 (0.1 uM or 1 uM) or GDNF (50 ng/ml) for 20 minutes. The cells were then solubilized in Triton-X-100/glycerol lysis buffer and subjected to electrophoresis and western blotting as partially described previously (Jiang et al., Mol Biol Cell 14:859-70 (2003)). To detect phosphorylated Erk (#4377 Cell Signaling) and ERK (#4696 Cell Signaling) by immunoblotting, the cells were directly lysed in the sample loading buffer. Secondary IRDye 700X and IRDye800 conjugated, fluorescent antibodies (Rockland Inc.) were used to detect signal with Odyssey v3.0 scanning software. Several blots were analyzed to determine the linear range of the fluorescence signals, and quantifications were performed using densitometry analysis.

[6] = test system: young and aged rats; details: Hebert et al. 1996, 1997, cited from earlier work

B1: GDNF: mature glial cell line-derived neurotrophic factor, homodimer of 32-42 kDa, comparator (protein, listed as Homo sapiens)
chain: SPDKQMAVLPRRERNRQAAAANPENSRGKGRRGQRGKNRGCVLTAIHLNVTDLGLGYETKEELIFRYCSGSCDAAETTYDKILKNLSRNRRLVSDKVGQACCRPIAFDDDLSFLDDNLVYHILRKHSAKRCGCI
modifications: homodimer
notes: mature glial cell line-derived neurotrophic factor, homodimer of 32-42 kDa, comparator
[1]; 0.1 ng/ml, 5 days in vitro, control 100
  Cell survival: *158 ± 12
[1]; 0.1 ng/ml, controls 3.8 ± 0.2 (GDNF), 3.1 ± 0.2 (DNSP-11)
  Average branches per neuron: **4.7 ± 0.2
[1]; 0.1 ng/ml, controls 171 ± 4 (GDNF), 168 ± 3 (DNSP-11)
  Soma size (um^2): 177 ± 4 um^2
[1]; 0.1 ng/ml, controls 242 ± 12 (GDNF), 222 ± 11 (DNSP-11)
  Combined neurite length (um): **310 ± 16 um
[1]; 0.03, 0.1, 1.0 and 10 ng/ml
  TH+ neuron counts: significantly increase
[2]
  percent of TUNEL positive cells: significant reduction
[3]
  caspase-3 activity: significant reduction
[4]
  interaction with GAPDH in solution: does not interact
[5]; B65 cells
  phosphorylation of Erk1/2 (ratio of phosphorylated to non-phosphorylated): elevated levels of activated Erk
[5]; MN9D cells
  phosphorylation of Erk1/2 (ratio of phosphorylated to non-phosphorylated): elevated levels of activated Erk
[6]
  augmentation of evoked release of dopamine: over 100%
[6]; young and aged rats
  increase of basal levels of DOPAC: 20-25%
